Test results taken from patent publication US20120023600A1 (Novartis, published 2012).
Numbering of substitutions follows the chain as printed.

B1: MOR04456 (Fab, V domains shown)
VH: QVQLVESGGGLVQPGGSLRLSCAASGFTFNNYGMTWVRQAPGKGLEWVSGISGSGSYTYYADSVKGRFTISRDNSKNTLYLQMNSLRAEDTAVYYCARTIYMDYWGQGTLVTVSS
VL: DIVLTQSPATLSLSPGERATLSCRASQNLFSPYLAWYQQKPGQAPRLLIYGASNRATGVPARFSGSGSGTDFTLTISSLEPEDFATYYCQQYGDEPITFGQGTKVEIKR
notes: Fab with C-terminal FLAG and 6xHis tags
B2: MOR04461 (Fab, V domains shown)
VH: QVQLVESGGGLVQPGGSLRLSCAASGFTFSSYWMSWVRQAPGKGLEWVSGISYSGSNTHYADSVKGRFTISRDNSKNTLYLQMNSLRAEDTAVYYCARMGIDLDYWGQGTLVTVSS
VL: DIALTQPASVSGSPGQSITISCTGTSSDVGGFNYVSWYQQHPGKAPKLMIHDGSNRPSGVSNRFSGSKSGNTASLTISGLQAEDEADYYCSTWDMTVDFVFGGGTKLTVLG
notes: as for B1
B3: MOR04516 (Fab, V domains shown)
VH: QVQLVQSGAEVKKPGESLKISCKGSGYSFTNYYIGWVRQMPGKGLEWMGIIYPTDSYTNYSPSFQGQVTISADKSISTAYLQWSSLKASDTAMYYCARGIPFRMRGFDYWGQGTLVTVSS
VL: DIVLTQPPSVSGAPGQRVTISCSGSSSNIGSSFVNWYQQLPGTAPKLLIGNNSNRPSGVPDRFSGSKSGTSASLAITGLQSEDEADYYCASFDMGSPNVVFGGGTKLTVLG
notes: Fab with C-terminal FLAG and 6xHis tags; also called MOR4516
B4: MOR04454 (Fab, V domains shown)
VH: QVQLVESGGGLVQPGGSLRLSCAASGFTFSNYGLHWVRQAPGKGLEWVSSISYYGSSTYYADSVKGRFTISRDNSKNTLYLQMNSLRAEDTAVYYCARDGSHMDKPPGYVFAFWGQGTLVTVSS
VL: DIQMTQSPSSLSASVGDRVTITCRASQGIKNYLNWYQQKPGKAPKLLIGAASSLQSGVPSRFSGSGSGTDFTLTISSLQPEDFATYYCLQYYGMPPTFGQGTKVEIKR
notes: as for B1
B5: MOR04914 (Fab, V domains shown)
VH: B2 VH with G50V, Y53S, S54D, G55S, N57S, H59Y, M99H, L103F, Y105H
VL: DIALTQPASVSGSPGQSITISCTGTSSDLGGYNYVSWYQQHPGKAPKLMIYDVNNRPSGVSNRFSGSKSGNTASLTISGLQAEDEADYYCQSYTYTPISPVFGGGTKLTVLG
B6: MOR04907 (Fab, V domains shown)
VH: B1 VH
VL: B1 VL with T86V, G93L, D94S, E95L, I97T
B7: MOR04921 (Fab, V domains shown)
VH: B2 VH
VL: DIALTQPASVSGSPGQSITISCTGTSSDVGGFNYVSWYQQHPGKAPKLMIHDGSNRPSGVSNRFSGSKSGNTASLTISGLQAEDEADYYCQTWATSPLSSVFGGGTKLTVLG
B8: MOR04954 (Fab, V domains shown)
VH: QVQLVESGGGLVQPGGSLRLSCAASGFTFSSYWMSWVRQAPGKGLEWVSVIEHKDKGGTTYYAASVKGRFTISRDNSKNTLYLQMNSLRAEDTAVYYCARHGIDFDHWGQGTLVTVSS
VL: B5 VL with T94A, Y95S, T96G, P97N, I98T, S99K, P100V

What follows are binders tested against T1, recombinant human DKK1 (human, UniProt O94907 32-266) (assay: SPR (Biacore), DKK1 immobilised on CM5 chip, Fab as analyte).
T1 construct: also called Dickkopf-1; rhDKK1
T1 sequence: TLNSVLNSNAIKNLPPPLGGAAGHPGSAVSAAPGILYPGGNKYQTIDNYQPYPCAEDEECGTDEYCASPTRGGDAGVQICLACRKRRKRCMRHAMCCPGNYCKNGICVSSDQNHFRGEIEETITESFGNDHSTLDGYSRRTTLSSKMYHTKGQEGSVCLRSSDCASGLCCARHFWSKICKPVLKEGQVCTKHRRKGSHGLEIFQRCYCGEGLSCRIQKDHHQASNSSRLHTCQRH
Procedure: (§1) Using these clones, kinetic SPR analysis is performed on a. […] The Fab preparations are applied in concentration series of 16-500 nM at a flow rate of 20 μl/min. Association phase is set to 60 s and dissociation phase to 120 s.
With B1 the Kd was 7.9 nM.
With B2 the Kd was 7.6 nM.
B3 showed a Kd of 2.6 nM.
B4 showed a Kd of 3.2 nM.

The binders below were run against T2, mouse DKK1 (R&D Systems) (mouse, UniProt O54908 32-272) in the same assay as above.
T2 construct: Bought protein
T2 sequence (looked up): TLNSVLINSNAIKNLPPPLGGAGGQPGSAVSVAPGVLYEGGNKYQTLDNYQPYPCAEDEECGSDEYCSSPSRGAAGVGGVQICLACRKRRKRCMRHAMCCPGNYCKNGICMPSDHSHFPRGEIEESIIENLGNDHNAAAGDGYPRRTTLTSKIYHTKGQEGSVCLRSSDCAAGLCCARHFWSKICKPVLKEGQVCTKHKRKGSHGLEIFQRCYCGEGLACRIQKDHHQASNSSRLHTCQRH
Procedure: as §1
B1 showed a Kd of 11.6 nM.
B2 showed a Kd of 12.8 nM.
In the case of B3, the Kd is reported as 2.4 nM.
For B4, the Kd was 6 nM.

The binders below were run against T3, cynomolgus DKK1 (cynomolgus monkey (Macaca fascicularis), UniProt A0A7N9IE82 32-266) in the same assay as above.
T3 construct: also called cyno DKK1; monkey DKK1 (Novartis)
T3 sequence: T1 sequence with H114N, T150S, S166T
Procedure: as §1
B1 showed a Kd of 8.1 nM.
In the case of B2, the Kd is reported as 7.3 nM.
In the case of B3, the Kd is reported as 1.9 nM.
In the case of B4, the Kd is reported as 2.7 nM.

Molecular target: T1, recombinant human DKK1
Experiment: as above
Remark: another data set of the same source
Procedure: as §1
Work on B1 yielded a Kd of 7.9 nM.
In the case of B2, the Kd is reported as 7.6 nM.
Work on B3 yielded a Kd of 2.6 nM.
For B4, the Kd was 3.2 nM.

Molecular target: T2, mouse DKK1 (R&D Systems)
Experiment: as above
Remark: another data set of the same source
Procedure: as §1
In the case of B1, the Kd is reported as 11.6 nM.
In the case of B2, the Kd is reported as 12.8 nM.
In the case of B3, the Kd is reported as 2.4 nM.
Binder B4 has a Kd of 6 nM.

Molecular target: T3, cynomolgus DKK1
Experiment: as above
Remark: another data set of the same source
Procedure: as §1
B1 was tested, and the Kd was 8.1 nM.
Work on B2 yielded a Kd of 7.3 nM.
In the case of B3, the Kd is reported as 1.9 nM.
B4 gave a Kd of 2.7 nM.

The binders below were run against T4, DKK1-APP (human, UniProt O94907 32-266) (assay: cell-based or functional assay).
T4 sequence: T1 sequence
For B1, the “Luciferase reporter assay; EC50” value was 95 nM.
In the case of B2, the “Luciferase reporter assay; EC50” value is reported as 57 nM.
With B3 the “Luciferase reporter assay; EC50” value was 42 nM.
For B4, the “Luciferase reporter assay; EC50” value was 83 nM.

Molecular target: T1, recombinant human DKK1
Experiment: SPR (Biacore), DKK1 immobilised on CM5 chip, Fab as analyte
Remark: another data set of the same source
Procedure: as §1
In the case of B1, the Kd is reported as 7.9 nM.
For B2, the Kd was 7.6 nM.
B3 gave a Kd of 2.6 nM.
Work on B4 yielded a Kd of 3.2 nM.

Molecular target: T2, mouse DKK1 (R&D Systems)
Experiment: as above
Remark: another data set of the same source
Procedure: as §1
Work on B1 yielded a Kd of 11.6 nM.
For B2, the Kd was 12.8 nM.
B3 gave a Kd of 2.4 nM.
B4 showed a Kd of 6 nM.

Molecular target: T3, cynomolgus DKK1
Experiment: as above
Remark: another data set of the same source
Procedure: as §1
B1 was tested, and the Kd was 8.1 nM.
With B2 the Kd was 7.3 nM.
B3 was tested, and the Kd was 1.9 nM.
Binder B4 has a Kd of 2.7 nM.

Molecular target: T4, DKK1-APP
Experiment: cell-based or functional assay
Remark: another data set of the same source
For B1, the “EC50” value was 95 nM.
B2 was tested, and the “EC50” value was 57 nM.
In the case of B3, the “EC50” value is reported as 42 nM.
In the case of B4, the “EC50” value is reported as 83 nM.

Molecular target: T4, DKK1-APP
Experiment: cell-based or functional assay
Remark: another data set of the same source
For B5, the “Luciferase reporter assay w/o Kremen; Activity in 15% Human serum (%)” value (from here on “Luciferase reporter assay w/o Kremen … (%)”) was 80%.
B6 was tested, and the “Luciferase reporter assay w/o Kremen … (%)” value was 54%.
In the case of B7, the “Luciferase reporter assay w/o Kremen … (%)” value is reported as 26%.
B8 was tested, and the “Luciferase reporter assay w/o Kremen … (%)” value was 55%.

What follows are binders tested against T5, biotinylated human DKK1 (human, UniProt O94907 32-266, biotinylated (sites not given)) (assay: ELISA, biotinylated DKK1 on Neutravidin plates, Fab 1 ug/ml, anti-FLAG-AP detection; single measurement).
T5 construct: also called biotinylated DKK1; human recombinant, biotinylated DKK1
T5 sequence: T1 sequence
Procedure: Binding specificity of the matured Fabs in the presence of 50% human serum (HS) is determined. […] After coating of the antigen, wells are blocked with TBS/0.05% Tween (TBS-T) supplemented with 1% BSA for 1 h at room temperature. Purified Fabs described above are diluted either in TBS/4% BSA or TBS/50% HS at a final concentration of 1 μg/ml, added to the coated and blocked wells and the plates are incubated for 1 h at room temperature. For detection, an anti-FLAG alkaline phosphatase (AP)-conjugated antibody (1:5000 dilution in TBST) and the fluorogenic substrate AttoPhos (Roche) are used. After each incubation, the wells of the microtiter plates are washed with TBST five times, except after the final incubation step with the labeled secondary antibody when wells are washed three times.
The fluorescence is measured in a TECAN Spectrafluor plate reader.
For B5, the “Binding activity w/50% Human serum vs 4% BSA (%)” value was 83%.
With B6 the “Binding activity w/50% Human serum vs 4% BSA (%)” value was > 83%.
With B7 the “Binding activity w/50% Human serum vs 4% BSA (%)” value was 93%.
In the case of B8, the “Binding activity w/50% Human serum vs 4% BSA (%)” value is reported as > 83%.

What follows are binders tested against T1, recombinant human DKK1 (assay: cell-based or functional assay).
For B5, the “TCF/LEF luc assay w/Kremen: EC50” value was 1.1 nM.
With B6 the “TCF/LEF luc assay w/Kremen: EC50” value was 0.9 nM.
B7 was tested, and the “TCF/LEF luc assay w/Kremen: EC50” value was 0.7 nM.
In the case of B8, the “TCF/LEF luc assay w/Kremen: EC50” value is reported as 1.3 nM.

The binders below were run against T1, recombinant human DKK1 (assay: solution equilibrium titration (SET), ECL (BioVeris), Fab).
Procedure: (§2) Electrochemiluminescence (ECL) based affinity determination in solution and data evaluation are basically performed as described by Haenel et al., 2005. […] Subsequently, the concentration of unbound Fab is quantified by ECL detection using the M-SERIES® 384 analyzer (BioVeris Europe).
(§3) Affinities are calculated according to Haenel et al., 2005 Anal Biochem 339.1:182-184.
Binder B5 has a Kd of 0.094 nM.
B6 was tested, and the Kd was 0.114 nM.
Binder B8 has a Kd of 0.11 nM.

These binders were tested against T2, mouse DKK1 (R&D Systems) in the same assay as above.
Procedure: as §2, §3
With B5 the Kd was 0.2 nM.
Binder B6 has a Kd of 0.167 nM.
B8 was tested, and the Kd was 0.036 nM.

The binders below were run against T3, cynomolgus DKK1 in the same assay as above.
Procedure: as §2, §3
For B5, the Kd was 0.14 nM.
B6 was tested, and the Kd was 0.17 nM.
For B8, the Kd was 0.112 nM.
